# Measured values: patent US20130209439A1, “INHIBITORS OF PDE4 BINDING TO HSP20” (THE UNIVERSITY COURT OF THE UNIVERSITY OF GLASGOW, priority 2010, published 2013)
# B1: Ac-FKLLQ-NH2 (peptide)
# peptide: Ac-FKLLQ-NH2
# notes: On the array SPOT-synthesised on a slide; also called peptide No 9
# B2: Ac-FQNLTK-NH2 (peptide)
# peptide: Ac-FQNLTK-NH2
# notes: On the array SPOT-synthesised on a slide; also called peptide No 6
# B3: Ac-YQNLTK-NH2 (peptide)
# peptide: Ac-YQNLTK-NH2
# notes: On the array the peptide was SPOT-synthesised on a slide; the soluble form Ac-...-NH2 was made 'to resemble SPOT synthesised peptides'; also called peptide No 3
# B4: Ac-FQNLTR-NH2 (peptide)
# peptide: Ac-FQNLTR-NH2
# notes: On the array SPOT-synthesised on a slide; also called peptide No 5
# B5: Ac-FQNLTA-NH2 (peptide)
# peptide: Ac-FQNLTA-NH2
# notes: Negative control; On the array SPOT-synthesised on a slide; also called peptide No 4
# B6: Ac-GFKLL-NH2 (peptide)
# peptide: Ac-GFKLL-NH2
# notes: On the array SPOT-synthesised on a slide; also called peptide No 11
# B7: Ac-KFKLL-NH2 (peptide)
# peptide: Ac-KFKLL-NH2
# notes: On the array SPOT-synthesised on a slide; also called peptide No 13
# B8: Ac-RFKLL-NH2 (peptide)
# peptide: Ac-RFKLL-NH2
# notes: On the array SPOT-synthesised on a slide; also called peptide No 14
# B9: Ac-GFALL-NH2 (peptide)
# peptide: Ac-GFALL-NH2
# notes: Negative control; On the array SPOT-synthesised on a slide; also called peptide No 16
# B10: Ac-GFRLL-NH2 (peptide)
# peptide: Ac-GFRLL-NH2
# notes: On the array SPOT-synthesised on a slide; also called peptide No 12
# B11: 25mer peptide 96 of the PDE4D5 peptide array (peptide)
# peptide: FKLLQEENCDIFQNLTKKQRQSLRK
# notes: peptides 93 to 96 span Y461-K500; SPOT-immobilised; also called spot 96
# B12: 25mer peptide 94 of the PDE4D5 peptide array (peptide)
# peptide: VLENHHLAVGFKLLQEENCDIFQNL
# notes: peptides 93 to 96 span Y461-K500; SPOT-immobilised; also called spot 94
# B13: 25mer peptide 93 of the PDE4D5 peptide array (peptide)
# peptide: YNDSSVLENHHLAVGFKLLQEENCD
# notes: peptides 93 to 96 span Y461-K500; SPOT-immobilised; also called spot 93
# B14: 25mer peptide 95 of the PDE4D5 peptide array (peptide)
# peptide: HLAVGFKLLQEENCDIFQNLTKKQR
# notes: peptides 93 to 96 span Y461-K500; SPOT-immobilised; also called spot 95
# Biological target: T1, His-HSP20 (purified recombinant His-tagged HSP20) (human, UniProt O14558 1-160)
# T1 construct: Expressed in E. coli BL21 from pET28c and purified on nickel; also called HSP20-His; HSP20-6His; not shown: His tag from the pET28c vector
# T1 sequence: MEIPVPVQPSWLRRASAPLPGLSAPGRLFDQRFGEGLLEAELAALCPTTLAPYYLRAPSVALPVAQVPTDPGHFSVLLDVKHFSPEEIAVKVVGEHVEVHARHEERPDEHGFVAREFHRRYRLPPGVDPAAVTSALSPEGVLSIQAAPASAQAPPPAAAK
# Assay: SPOT peptide array overlaid with purified His-Hsp20
# Conditions: not given
# Method: A variety of peptides were generated and SPOT-synthesised onto slides which were then overlaid with 10 μg/ml of purified His-Hsp20. Interaction with peptides and Hsp20 was evaluated by probing slides with anti-His or Hsp20 antibodies and analysed using enhanced chemi-luminescence techniques, Negative controls used anti-His antibody only with no overlay of His-Hsp20 protein (data not shown).
row,Molecule,binding result
1,B1,binds
2,B2,binds
3,B3,binds
4,B4,binds
5,B5,no binding (tested: 10 ug/ml His-Hsp20 overlay)
6,B6,binds
7,B7,binds
8,B8,binds
9,B9,no binding (tested: 10 ug/ml His-Hsp20 overlay)
10,B10,binds

# System: pS16-Hsp20 in SH-SY5Y cells
# Assay: Cell based Hsp20-PDE4D disruptor assay, nucleofected SH-SY5Y cells, pS16-Hsp20 Western blot
# Set-up: species or system human
# Conditions: SH-SY5Y cells nucleofected with 500 μM peptide, 2 hours
# Method: FIG. 9. Disrupter induced HSP20 phosphorylation SH-SY5Y cells nucleofected with 500 μM of each peptide and incubated for 2 hours prior to harvesting. Each assay was blotted for Hsp20, pS16-Hsp20 and tubulin. Changes in levels of phospho-Hsp20 relative to DMSO only controls were quantified through densitometry analysis and each assay was normalised to α-tubulin loading control. The results are the average of three separate experiments and error bars represent SEM. *=p<0.05, **=p<0.01 compared to DMSO only controls (Student-T-test)
# SDS-PAGE analysis was done on NuPage® pre-cast gels X-cell apparatus (Invitrogen, Paisley) using MES-SDS running buffer, Samples were reduced in Laemmli 2× loading buffer (4% SOS) with 5% β-mercaptoethanol. For Western Blotting (WB) analysis, samples were transferred using NuPage® X-cell blotting module onto a nitrocellulose membrane. Membranes were blocked using 5% Milk in 1×TBST (w/v). Antibodies were incubated in 1% milk in 1×TBST (w/v) for either 1 hour at room temperature or overnight at 4° C. Signals were detected using enhanced chemiluminescence system (Pierce) and developed on an X-omat film developer. Subsequent densitometry analysis was carried out using Quantity One (Bio-Rad).
# SH-SY5Y cells (ATCC-CRL-2266) were grown in Dulbecco's Modified Eagle's Medium (DMEM) and F12-Ham's at a 1:1 ratio, media was supplemented with 10% (v/v) fetal bovine serum (FBS), 1% (v/v) L-Glutamine, 1% (v/v) Minimum Essential Medium—With Non-essential Amino Acids (MEM-NAA) and 1% (v/v) Pen/strep. Cells were cultured in a humidified, 5% (v/v) CO2, 37° C. incubator.
# SH-SY5Y cells were nucleofected using Cell Line Nucleofector® Kit-V in accordance with manufacturers protocol (Amaxa Biosystems). Setting A-23 on the Nucleofector I device was used which increases cell viability. For each assay, 500 μM of disrupter peptide was incubated with 100 μl of nucleofection solution containing approximately 2×10^6 cells. After nucleofection cells were re-suspended in 500 μl of culture media before being transferred to a 6 well plate with a final volume of 2 ml per well. Cells were incubated for 2 hours prior to harvesting with […] containing protease and phosphatase inhibitors (Roche).
# As the cell permeability of the peptides is unknown we used an electroporation technique to introduce the peptides into the SH-SY5Y cells. The Amaxa cell-line specific Nucleofector Kit V (Lonza) was used to transfect the peptides into the cells. […] Each assay used a final concentration of 500 μM of peptide in nucleofector solution containing approximately 2×10^6 SH-SY5Y cells. As peptides were dissolved in 100% DMSO, control transfections with DMSO only were used to compare any changes in phospho-Hsp20 levels. After each transfection the solution was reconstituted in culture media and incubated for 2 hours to allow for cell adhesion prior to the harvesting of viable cells.
row,Molecule,pS16-Hsp20 levels relative to DMSO only controls
1,Ac-LTK-NH2 (Ac-Leu-Thr-Lys-NH2) [Peptide 7],significant increase in pS16-Hsp20 levels
2,Ac-GFRLL-NH2 [Peptide 12],induced an average increase when compared with DMSO only controls
3,Ac-FQNLTK-NH2 [Peptide 6],significant increase in pS16-Hsp20 levels
4,Ac-GFALL-NH2 [Peptide 16],average value similar to the DMSO only controls
5,Ac-FKLLQ-NH2 [Peptide 9],indistinguishable from DMSO only controls
6,Ac-GFKLL-NH2 [Peptide 11],indistinguishable from DMSO only controls
7,Ac-YQNLTK-NH2 [Peptide 3],no effect on phosphorylation levels
8,Ac-KFKLL-NH2 [Peptide 13],induced an average increase when compared with DMSO only controls

# System: Phospho-Ser16 HSP20 in neonatal cardiac myocytes
# Assay: Ser16 phosphorylation of endogenous HSP20 in neonatal cardiac myocytes (Western blot)
# Type: cell-based, rat
# Conditions: cardiomyocytes, stimulated with isoproterenol alone or with PKA inhibitor pre-treatment; data not shown
# Method: FIG. 2. The phosphorylation of HSP20 at Ser16 is modulated by PDE4 activity in cardiac myocytes. A, Neonatal cardiac myocytes were treated with isoprenaline for indicated times with or without pre-treatment with the PDE4-specific inhibitor, rolipram. Cellular lysates were blotted for HSP20 and Phospho-Ser16 HSP20. B, Quantifications of data from FIG. 2A (n=3). * Denotes significance at a level p<0.05 over iso treatment.
# (§1) HEK293B2 cells are a stable cell line overexpressing the GFP-tagged β2AR were cultured as previously described^48. HEK293B2 cells were transiently transfected with wild type HSP20 or a phosphorylation defective HSP20 (S16A) or a phosphorylation mimic HSP20 (S16D). Neonatal cardiac myocytes were prepared and cultured as previously described^30. Cell lysis, immunopurification and western blotting was done as described before by us in some detail^48. Briefly, HEK 293 cells were transiently transfected with wild-type HSP20 by using Polyfect Transfection Reagent (Qiagen). Transfected HEK 293 cells were treated with 10 μM bs906 or 10 μM control peptide for 0, 15, 30, 60 and 120 min. Control and treated transfected HEK 293 cells were then washed thrice with ice cold PBS (phosphate buffered saline) before cellular lysates were prepared. Cellular lysates were prepared in lysis buffer containing 25 mM Hepes, pH 7.5, 2.5 mM EDTA, 50 mM NaCl, 50 mM NaF, […], 10% (v/v) glycerol, 1% (v/v) Triton X-100 and Complete™ EDTA-free protease inhibitor cocktail tablets (Roche). Protein concentration of lysates were determined using the Bradford assay and all samples were equalised for protein concentration. Proteins were separated by SOS/PAGE (4-12% Bis-Tris gels) and transferred onto nitrocellulose membranes for Western blotting. Antibodies were used to detect phospho-proteins and native proteins in lysates from control and treated cells
# To determine whether inhibition of PDE4 activity had similar effects on endogenous phospho-HSP20 levels in heart cells, similar experiments were undertaken using neonatal cardiomyocytes (FIG. 2).
row,Molecule,HSP20 phosphorylation after PKA inhibitor pre-treatment
1,CCCCCCOC(=O)[C@]1(O)C[C@@H]2O[C@@]1(C)n1c3ccccc3c3c4c(c5c6ccccc6n2c5c31)C(=O)NC4 [KT5720],markedly attenuated HSP20 phosphorylation
2,"O=S(=O)(NCCNC/C=C/c1ccc(Br)cc1)c1cccc2cnccc12 [Peptide H89, H89]",markedly attenuated HSP20 phosphorylation

# System: Phospho-Ser16 HSP20 in HEKB2 cells
# Assay: Ser16 phosphorylation of HSP20 in HEKB2 cells overexpressing HSP20 (Western blot)
# Type: cell-based
# Conditions: HEKB2 cells, stimulated with isoproterenol alone; data not shown
# Method: FIG. 1. The phosphorylation of HSP20 at Ser16 is modulated by PDE4 activity in HEKB2 cells. A, HEKB2 cells overexpressing HSP20 or HSP20 ser16-Ala mutant were treated with isoprenaline for indicated times. Cellular lysates were blotted for HSP20 and Phospho-Ser16 HSP20. B, HEKB2 cells overexpressing HSP20 were treated with isoprenaline for indicated times, Cellular lysates were blotted for HSP20 and Phospho-Ser16 HSP20. C, HEKB2 cells overexpressing HSP20 were treated with isoprenaline for indicated times following pre-treatment with the PDE4-specific inhibitor, rolipram. Cellular lysates were blotted for HSP20 and Phospho-Ser16 HSP20. D, Quantifications of data from FIGS. 1B and 1C (n=4). * Denotes significance at a level p<0.05 E, Lysate from untransfected HEKB2 cells was blotted for HSP20 and Phospho-Ser16 HSP20.
# as §1
# In contrast to this, when we transfected these cells with a phospho-null mutant form, Ser16Ala-Hsp20, then no such change was observed (FIG. 1A). In order to evaluate whether PDE4 activity played a role in regulating this phosphorylation process in Hsp20-transfected HEKB2 cells, cells that had either been pre-treated or not with the PDE4 selective inhibitor rolipram were subsequently challenged with isoprenaline (1 μM) (FIGS. 1B and C). […] Endogenous levels of phospho-HSP20 or HSP20 were not detectable in HEKB2 cells (FIG. 1E).
row,Molecule,HSP20 phosphorylation after PKA inhibitor pre-treatment
1,CCCCCCOC(=O)[C@]1(O)C[C@@H]2O[C@@]1(C)n1c3ccccc3c3c4c(c5c6ccccc6n2c5c31)C(=O)NC4 [KT5720],markedly attenuated HSP20 phosphorylation
2,"O=S(=O)(NCCNC/C=C/c1ccc(Br)cc1)c1cccc2cnccc12 [Peptide H89, H89]",markedly attenuated HSP20 phosphorylation

# Biological target: T1, His-HSP20 (purified recombinant …)
# Assay: PDE4D5 peptide array overlaid with HSP20-6His
# Conditions: not given
# From the text: PDE4 isoform localisation invariably depends on protein-protein interactions, with PDE4s shown to associate with a diverse group of interacting partners such as RACK1^{32, 36}, βarrestin³⁶, β₁-Ar³⁷, DISC1³⁸, the p75 neurotrophin receptor³⁹ and the cardiac IKs potassium channel⁴⁰. […] Dark spots represent positive areas of HSP20 interaction whereas clear spots are negative for the association (FIG. 4A).
row,Molecule,binding result
1,B11,binds
2,B12,binds
3,B13,binds
4,B14,binds
